Patent US20200017583A1 (Daiichi Sankyo, published 2020)
Residue numbers refer to the chain shown, from its start. Values belong to the binder of their own block, whether it stands above or below them. Where no end group is shown, it is not given here. The star is where a group is joined. Biotin = O=C1N[C@H]2[C@H](CS[C@H]2CCCCC(=O)*)N1

How the values were obtained:
[1] = target: T1, GPR20 fragment peptide GLEVPLFHLFARLD (human, SMILES …); assay: BLI (Octet RED384), peptide on streptavidin sensor, antibody as analyte, 1:1 model
T1 construct: Captured on streptavidin sensor chips
T1 peptide: Biotin-GLEVPLFHLFARLD-NH2
Description: (§1) For the detailed analysis of the epitope, a peptide consisting of amino acid positions 29 to 48 of GPR20, and peptides in which a terminal amino acid residue was continuously truncated one by one from this peptide, were synthesized, and then N-terminally biotinylated and C-terminally amidated to produce a GPR20 fragment peptide library (Sigma-Aldrich Japan G.K.). […] PBS-T was used as a buffer solution, and the sensor chips used were streptavidin sensor chips (manufactured by Pall ForteBio Corp.). […] Subsequently, the sensor chip was dipped in the buffer solution, and a dissociation phase was monitored for 270 seconds. […] The data was analyzed using 1:1 binding models to calculate association rate constant ka, dissociation rate constant kd and dissociation constant KD (KD=kd/ka).

[2] = target: T2, GPR20 fragment peptide GLEVPLFHLFAR (human, SMILES …); assay: as above
T2 construct: Captured on streptavidin sensor chips
T2 peptide: Biotin-GLEVPLFHLFAR-NH2
Description: as §1

[3] = target: T3, GPR20 fragment peptide GLEVPLFHLFARLDEELHGT (human, N-terminally biotinylated and C-terminally amidated); assay: as above
T3 construct: Captured on streptavidin sensor chips; also called peptide consisting of amino acid positions 29 to 48 of GPR20
T3 peptide: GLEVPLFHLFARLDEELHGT
Description: as §1

[4] = target: T4, GPR20 fragment peptide GLEVPLFHLFARL (human, SMILES …); assay: as above
T4 construct: Captured on streptavidin sensor chips
T4 peptide: Biotin-GLEVPLFHLFARL-NH2
Description: as §1

[5] = target: T5, GPR20 fragment peptide LEVPLFHLFARLDEEL (human, SMILES …); assay: as above
T5 construct: Captured on streptavidin sensor chips
T5 peptide: Biotin-LEVPLFHLFARLDEEL-NH2
Description: as §1

[6] = target: T6, GPR20 fragment peptide VPLFHLFARLDEEL (human, SMILES …); assay: as above
T6 construct: Captured on streptavidin sensor chips
T6 peptide: Biotin-VPLFHLFARLDEEL-NH2
Description: as §1

[7] = target: T7, GPR20 fragment peptide GLEVPLFHLFARLDEEL (human, SMILES …); assay: as above
T7 construct: Captured on streptavidin sensor chips
T7 peptide: Biotin-GLEVPLFHLFARLDEEL-NH2
Description: as §1

[8] = target: T8, GPR20 fragment peptide EVPLFHLFARLDEEL (human, SMILES …); assay: as above
T8 construct: Captured on streptavidin sensor chips
T8 peptide: Biotin-EVPLFHLFARLDEEL-NH2
Description: as §1

[9] = target: T9, GPR20 fragment peptide GLEVPLFHLFARLDEE (human, SMILES …); assay: as above
T9 construct: Captured on streptavidin sensor chips
T9 peptide: Biotin-GLEVPLFHLFARLDEE-NH2
Description: as §1

[10] = target: T10, GPR20 fragment peptide GLEVPLFHLFARLDE (human, SMILES …); assay: as above
T10 construct: Captured on streptavidin sensor chips
T10 peptide: Biotin-GLEVPLFHLFARLDE-NH2
Description: as §1

[11] = target: T11, synthetic peptide 2 consisting of amino acid positions 30 to 48 of human GPR20 (human, also: biotinylated, position not given here); assay: peptide-ELISA, biotinylated peptide on NeutrAvidin plate, antibody at 1 µg/mL, anti-rat IgG-peroxidase, chemiluminescence
T11 construct: Captured on NeutrAvidin plates
T11 peptide: LEVPLFHLFARLDEELHGT

[12] = target: T12, C-terminally biotinylated synthetic peptide 1 consisting of amino acids at positions 1 to 48 from the … (human, C-terminally biotinylated); assay: as above
T12 construct: Captured on NeutrAvidin plates
T12 peptide: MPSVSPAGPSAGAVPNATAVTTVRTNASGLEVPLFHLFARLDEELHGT
Experimental: NeutrAvidin (Pierce/Thermo Fisher Scientific Inc.) diluted to 1 μg/mL with PBS was added at 100 μL/well to 96-well Maxisorp plate (Nunc), and the plate was left standing overnight at 4° C. The solution was removed, and the plate was washed three times with 300 μL/well of PBS containing 0.05% Tween 20 (hereinafter, referred to as PBST). […] The plate was left standing at room temperature for 1 hour. The solution was removed from the plate, and each well was washed three times with PBST. Then, Blocker Casein in PBS (Thermo Fisher Scientific Inc.) was added at 100 μL/well, and the plate was left standing overnight at room temperature. The solution was removed, and each well was washed three times with PBST. […] The solution was removed, and each well was washed three times with PBST. Then, Anti-Rat IgG-Peroxidase antibody produced in rabbit (Jackson ImmunoResearch Laboratories, Inc.) 500-fold diluted with PBS was added at 100 μL/well, and the plate was left standing at room temperature for 1 hour. The solution was removed, and each well was washed three times with PBST. Then, SuperSignal ELISA Pico Chemiluminescent Substrate was added at 100 μl/well, and the plate was left standing at room temperature for 10 minutes, followed by the measurement of chemiluminescence using a plate reader (SpectraMax M3, Molecular Devices, LLC).

[13] = target: T13, human GPR20 protein (human, UniProt Q99678 1-358); assay: flow cytometry, hybridoma culture supernatant on 293T cells transiently expressing human GPR20 versus empty-vector 293T cells, anti-rat IgG FITC
T13 construct: membrane fraction on SDS-PAGE for the Western blot; also called hGPR20; G protein-coupled receptor 20
Experimental: The cells were left standing at 4° C. for 1 hour. […] The cells were left standing at 4° C. for 1 hour.

[14] = target: T13, human GPR20 protein; assay: immunohistochemistry on paraffin-embedded GIST430 and GIST430/654 preparations, PC-3 as GPR20-negative control, DAB
Experimental: Deparaffinization and antigen retrieval were carried out at 97° C. for 40 minutes with an antigen retrieval solution (Target Retrieval Solution High pH; manufactured by Dako/Agilent Technologies Inc.) using a pretreatment system for Autostainer Link (PT Link; manufactured by Dako/Agilent Technologies Inc.). Subsequent staining procedures were carried out at room temperature using an automatic staining apparatus (Dako Autostainer Link 48; manufactured by Dako/Agilent Technologies Inc.). After washing once with EnVision FLEX WASH BUFFER (manufactured by Dako/Agilent Technologies Inc.), Peroxidase Block 3% H2O2 (manufactured by Dako/Agilent Technologies Inc.) was added to the cells, which were then incubated for 5 minutes and washed once with EnVision FLEX WASH BUFFER. Protein Block serum free (manufactured by Dako/Agilent Technologies Inc.) was added to the cells, which were then incubated for 30 minutes. The solution was removed by air blow. A rat monoclonal anti-GPR20 antibody, a rabbit chimeric anti-GPR20 antibody or a rabbit type anti-GPR20 antibody was diluted into 1.0 μg/mL to 10 μg/mL with REAL Antibody Diluent (manufactured by Dako/Agilent Technologies Inc.) and reacted with the cells for 30 minutes.
DAKO Liquid DAB+Substrate Chromogen System was added to the cells, which were then incubated for a total of 10 minutes and then washed once with EnVision FLEX WASH BUFFER. EnVision FLEX Hematoxylin was added to the cells, which were incubated for 5 minutes and then washed a total of three times with EnVision FLEX WASH BUFFER and ion-exchanged water.

B2: rabbit chimeric anti-GPR20 antibody OcChimera (antibody)
heavy: EVQLVESGGGLVQPGRSLKLSCVASGFTFNNYWMTWIRQAPGKGLEWVASITNIDGSSYYPDSVKGRFTISRDNVKSTLYLQMNSLRSEDTATYYCTRGSFDYWGQGVMVTVSSGQPKAPSVFPLAPCCGDTPSSTVTLGCLVKGYLPEPVTVTWNSGTLTNGVRTFPSVRQSSGLYSLSSVVSVTSSSQPVTCNVAHPATNTKVDKTVAPSTCSKPTCPPPELLGGPSVFIFPPKPKDTLMISRTPEVTCVVVDVSQDDPEVQFTWYINNEQVRTARPPLREQQFNSTIRVVSTLPITHQDWLRGKEFKCKVHNKALPAPIEKTISKARGQPLEPKVYTMGPPREELSSRSVSLTCMINGFYPSDISVEWEKNGKAEDNYKTTPAVLDSDGSYFLYNKLSVPTSEWQRGDVFTCSVMHEALHNHYTQKSISRSPGK
light: DIQMTQSPSVLSASVGDRVTLNCKASQNVNKYLNWFQQKLGEPPKLLIYNTNNLQTGIPSRFSGSGSGTDYTLTISSLQPEDVATYFCFQHVSWLTFGSGTKLEIKRDPVAPSVLLFPPSKEELTTGTATIVCVANKFYPSDITVTWKVDGTTQQSGIENSKTPQSPEDNTYSLSSTLSLTSAQYNSHSVYTCEVVQGSASPIVQSFNRGDC
notes: 04-093 variable regions on rabbit IGHG*02 and IGKC2*01 constant regions; also called rabbit chimeric antibody; OcHch/OcLch
binding result [14]: binds

B3: rabbit type anti-GPR20 antibody OcH1L1 (antibody, V domains shown)
VH: EVQLKESGGGLVKPGGSLKLCCKASGFTFNNYWMTWIRQAPGKGLEWIASITNIDGSSYYASWVNGRFTLSRDNAQSTVCLQLNSLTAADTATYFCTRGSFDYWGQGTLVTVSS
VL: DIVMTQTPSPVSAAVGGTVTINCKASQNVNKYLNWFQQKPGQPPKLLIYNTNNLQTGVPSRFSGSGSGTDYTLTISGVQCDDAATYYCFQHVSWLTFGGGTEVVVKG
notes: CDR-grafted rabbit type form of 04-093; also called OcH01/OcL01
binding result [14]: binds

Next, values leading:

Kd [1]: < 1 pM
Kd [2]: 13 nM
Kd [3]: < 1 pM
Kd [4]: 1.1 nM
Kd [5]: < 1 pM
Kd [6]: 5.7 nM
Kd [7]: < 1 pM
Kd [8]: 1.1 nM
Kd [9]: < 1 pM
Kd [10]: < 1 pM
binding result [11]: binds
binding result [12]: binds
binding result [13]: binds
B1: rat anti-human GPR20 antibody 04-093 (antibody, rat IgG2b)
heavy: EVQLVESGGGLVQPGRSLKLSCVASGFTFNNYWMTWIRQAPGKGLEWVASITNIDGSSYYPDSVKGRFTISRDNVKSTLYLQMNSLRSEDTATYYCTRGSFDYWGQGVMVTVSSAQTTAPSVYPLAPGCGDTTSSTVTLGCLVKGYFPEPVTVTWNSGALSSDVHTFPAVLQSGLYTLTSSVTSSTWPSQTVTCNVAHPASSTKVDKKVERRNGGIGHKCPTCPTCHKCPVPELLGGPSVFIFPPKPKDILLISQNAKVTCVVVDVSEEEPDVQFSWFVNNVEVHTAQTQPREEQYNSTFRVVSALPIQHQDWMSGKEFKCKVNNKALPSPIEKTISKPKGLVRKPQVYVMGPPTEQLTEQTVSLTCLTSGFLPNDIGVEWTSNGHIEKNYKNTEPVMDSDGSFFMYSKLNVERSRWDSRAPFVCSVVHEGLHNHHVEKSISRPPGK
light: DIQMTQSPSVLSASVGDRVTLNCKASQNVNKYLNWFQQKLGEPPKLLIYNTNNLQTGIPSRFSGSGSGTDYTLTISSLQPEDVATYFCFQHVSWLTFGSGTKLEIKRADAAPTVSIFPPSTEQLATGGASVVCLMNNFYPRDISVKWKIDGTERRDGVLDSVTDQDSKDSTYSMSSTLSLTKADYESHNLYTCEVVHKTSSSPVVKSFNRNEC
notes: Rat IgG2b, kappa, from a hybridoma; the full-length chains were made by linking them to known rat constant regions (IMGT IGHG2B*01, IGKC*01); also called 04-093 antibody; rat anti-GPR20 antibody 04-093

binding result [14]: binds
B4: rabbit type anti-GPR20 antibody OcH2L1 (antibody, V domains shown)
VH: B3 VH with C21S, A61P, S62D, W63S, N65K, L70I, V79L, C80Y
VL: B3 VL
notes: CDR-grafted rabbit type form of 04-093; also called OcH02/OcL01
